# Source: patent US20170115291A1, “Activating JAK Kinase Biomarkers Predictive of Anti-Immune Checkpoint Inhibitor Response” (Dana-Farber Cancer Institute, Inc., priority 2014, published 2017)
# B1: IFN-γ: cytokine known to trigger PD-L1 in the tumor immune microenvironment (protein, UniProt P01579 24-161, looked up)
# Interferon gamma: QDPYVKEAENLKKYFNAGHSDVADNGTLFLGILKNWKEESDRKIMQSQIVSFYFKLFKNFKDDQSIQKSVETIKEDMNVKFFNSNKKKRDDFEKLTNYSVTDLNVQRKAIHELIQVMAELSPAAKTGKRKRSQMLFRG
# Tested on: CD14+ myeloid cells
# Assay: PBMC stimulation with IFNγ, PD-L1 on CD14+ myeloid cells by flow cytometry
# Assay type: cell-based, human
# Details: JAK3 V722I positive patients vs JAK3 P132T positive patient or blood donor controls, 250 ng/ml, 48 h
# Procedure: Peripheral blood mononuclear cells (PBMCs) from patients identified as having JAK3 V722I or P132T variants (see sequencing section above) and healthy donors were isolated from fresh blood and platelet-depleted blood collars, respectively, by Ficoll method. PBMCs were plated at a density of 7.5×10^5 cells/ml in a 48-well plate and stimulated with 250 ng/ml IFNγ (PBL Interferon Source). No stimulation controls were set-up for each donor. At 48 h post-stimulation, cells were treated with 2 mM EDTA and collected for flow cytometry to assess for PD-L1 expression on CD14+ myeloid cells. Cells were stained with Live/Dead yellow viability dye (Invitrogen), as well as antibodies (BD Biosciences) against CD14 (M5E2), CD11b (ICRF44), and PD-L1 (MIH1) for 30 min at 4 C, and then fixed in BD Cytofix® buffer prior to analyses on BD LSR Fortessa SORT® HTS flow cytometer. Given the need to compare the difference between two means in relation to the variation in the data, a t-test was used to compare PD-L1 inducibility between V722I and non-V722I monocytes.
molecule,measurement,value
B1,Expression of PD-L1 on CD14+ myeloid cells,modest but significantly increased
